To fix the notation:
T1: EsCas13d, nuclease-dead (Eubacterium siraeum, UniProt B0MS50, R295A;H300A;R849A;H854A)
T1 sequence: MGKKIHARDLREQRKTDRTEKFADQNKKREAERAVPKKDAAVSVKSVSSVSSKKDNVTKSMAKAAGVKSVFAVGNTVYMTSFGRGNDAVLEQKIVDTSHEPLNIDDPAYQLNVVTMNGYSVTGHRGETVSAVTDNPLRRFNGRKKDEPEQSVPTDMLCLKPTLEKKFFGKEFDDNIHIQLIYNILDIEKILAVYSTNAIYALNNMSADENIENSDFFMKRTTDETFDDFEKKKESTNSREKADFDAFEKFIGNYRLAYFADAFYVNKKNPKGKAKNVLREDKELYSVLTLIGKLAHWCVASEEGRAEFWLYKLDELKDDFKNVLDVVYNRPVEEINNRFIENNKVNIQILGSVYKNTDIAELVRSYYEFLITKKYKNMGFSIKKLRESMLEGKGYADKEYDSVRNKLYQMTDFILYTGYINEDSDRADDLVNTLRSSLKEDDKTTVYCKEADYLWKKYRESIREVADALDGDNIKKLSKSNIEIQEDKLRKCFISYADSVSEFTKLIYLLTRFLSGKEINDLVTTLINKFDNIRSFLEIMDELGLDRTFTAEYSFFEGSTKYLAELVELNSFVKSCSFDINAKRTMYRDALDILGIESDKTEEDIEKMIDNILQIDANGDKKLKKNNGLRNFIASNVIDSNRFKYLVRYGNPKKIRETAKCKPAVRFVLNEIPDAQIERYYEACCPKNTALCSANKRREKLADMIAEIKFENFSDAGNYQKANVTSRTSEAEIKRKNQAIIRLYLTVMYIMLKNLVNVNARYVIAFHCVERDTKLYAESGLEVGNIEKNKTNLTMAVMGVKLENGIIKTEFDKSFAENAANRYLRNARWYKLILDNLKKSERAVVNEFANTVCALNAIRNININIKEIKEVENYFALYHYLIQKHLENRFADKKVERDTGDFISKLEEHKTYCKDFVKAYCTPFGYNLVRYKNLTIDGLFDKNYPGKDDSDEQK

B1: target 2 MT 5'PFS GUG 3'PFS UCA (mixed)
RNA 1: CACCCGUGCAAAAUUGCAGGGGUCUAAAACCUUCUCCAAAUUGUUUCAUCCU
RNA 2: GGGAAUGGAUCCACAUCUACGAAUUCGUGAGGAUGAAACAAUUUGGAGAAGUCAAGAUCGGAAGAGCACACGU
B2: target 2 MT 5'PFS AAC 3'PFS AAA (mixed)
RNA 1: B1 RNA 1
RNA 2: B1 RNA 2 with G27A, U28A, G29C, U52A, C53A
B3: target 2 MT 5'PFS ACA 3'PFS UAU (mixed)
RNA 1: B1 RNA 1
RNA 2: B1 RNA 2 with G27A, U28C, G29A, C53A, A54U
B4: target 2 MT 5'PFS UAC 3'PFS UGC (mixed)
RNA 1: B1 RNA 1
RNA 2: B1 RNA 2 with G27U, U28A, G29C, C53G, A54C
B5: target 2 MT 5'PFS GUU 3'PFS ACC (mixed)
RNA 1: B1 RNA 1
RNA 2: B1 RNA 2 with G29U, U52A, A54C
B6: target 2 MT 5'PFS CGC 3'PFS UUG (mixed)
RNA 1: B1 RNA 1
RNA 2: B1 RNA 2 with G27C, U28G, G29C, C53U, A54G
B7: target 2 MT 5'PFS AUC 3'PFS CUC (mixed)
RNA 1: B1 RNA 1
RNA 2: B1 RNA 2 with G27A, G29C, U52C, C53U, A54C
B8: target 2 MT 5'PFS AGA 3'PFS CAG (mixed)
RNA 1: B1 RNA 1
RNA 2: B1 RNA 2 with G27A, U28G, G29A, U52C, C53A, A54G
B9: target 2 MT 5'PFS CGC 3'PFS UUA (mixed)
RNA 1: B1 RNA 1
RNA 2: B1 RNA 2 with G27C, U28G, G29C, C53U
B10: target 2 MT 5'PFS AGC 3'PFS ACU (mixed)
RNA 1: B1 RNA 1
RNA 2: B1 RNA 2 with G27A, U28G, G29C, U52A, A54U
B11: target 2 MT 5'PFS AGU 3'PFS CAC (mixed)
RNA 1: B1 RNA 1
RNA 2: B1 RNA 2 with G27A, U28G, G29U, U52C, C53A, A54C
B12: target 2 MT 5'PFS UUC 3'PFS UAC (mixed)
RNA 1: B1 RNA 1
RNA 2: B1 RNA 2 with G27U, G29C, C53A, A54C
B13: target 2 MT 5'PFS GUG 3'PFS CAC (mixed)
RNA 1: B1 RNA 1
RNA 2: B1 RNA 2 with U52C, C53A, A54C
B14: target 2 MT 5'PFS GUU 3'PFS ACG (mixed)
RNA 1: B1 RNA 1
RNA 2: B1 RNA 2 with G29U, U52A, A54G
B15: target 2 MT 5'PFS GUG 3'PFS UCG (mixed)
RNA 1: B1 RNA 1
RNA 2: B1 RNA 2 with A54G
B16: target 2 MT 5'PFS AGC 3'PFS ACA (mixed)
RNA 1: B1 RNA 1
RNA 2: B1 RNA 2 with G27A, U28G, G29C, U52A
B17: target 2 MT 5'PFS GUG 3'PFS UCC (mixed)
RNA 1: B1 RNA 1
RNA 2: B1 RNA 2 with A54C
B18: target 2 MT 5'PFS AGU 3'PFS CAU (mixed)
RNA 1: B1 RNA 1
RNA 2: B1 RNA 2 with G27A, U28G, G29U, U52C, C53A, A54U
B19: target 2 MT 5'PFS AAU 3'PFS UCA (mixed)
RNA 1: B1 RNA 1
RNA 2: B1 RNA 2 with G27A, U28A, G29U
B20: target 2 MT 5'PFS AGU 3'PFS CAG (mixed)
RNA 1: B1 RNA 1
RNA 2: B1 RNA 2 with G27A, U28G, G29U, U52C, C53A, A54G
B21: target 2 MT 5'PFS AGA 3'PFS CAC (mixed)
RNA 1: B1 RNA 1
RNA 2: B1 RNA 2 with G27A, U28G, G29A, U52C, C53A, A54C
B22: target 2 MT 5'PFS GUU 3'PFS ACA (mixed)
RNA 1: B1 RNA 1
RNA 2: B1 RNA 2 with G29U, U52A
B23: target 2 MT 5'PFS AGA 3'PFS AGC (mixed)
RNA 1: B1 RNA 1
RNA 2: B1 RNA 2 with G27A, U28G, G29A, U52A, C53G, A54C
B24: target 2 MT 5'PFS UAG 3'PFS UAG (mixed)
RNA 1: B1 RNA 1
RNA 2: B1 RNA 2 with G27U, U28A, C53A, A54G
B25: target 2 MT 5'PFS AUC 3'PFS CUA (mixed)
RNA 1: B1 RNA 1
RNA 2: B1 RNA 2 with G27A, G29C, U52C, C53U
B26: target 2 MT 5'PFS AGA 3'PFS CAU (mixed)
RNA 1: B1 RNA 1
RNA 2: B1 RNA 2 with G27A, U28G, G29A, U52C, C53A, A54U
B27: target 2 MT 5'PFS AGC 3'PFS ACG (mixed)
RNA 1: B1 RNA 1
RNA 2: B1 RNA 2 with G27A, U28G, G29C, U52A, A54G
B28: target 2 MT 5'PFS GUU 3'PFS ACU (mixed)
RNA 1: B1 RNA 1
RNA 2: B1 RNA 2 with G29U, U52A, A54U
B29: target 2 MT 5'PFS ACA 3'PFS UAC (mixed)
RNA 1: B1 RNA 1
RNA 2: B1 RNA 2 with G27A, U28C, G29A, C53A, A54C
B30: target 2 MT 5'PFS GUG 3'PFS CAG (mixed)
RNA 1: B1 RNA 1
RNA 2: B1 RNA 2 with U52C, C53A, A54G
B31: target 2 MT 5'PFS AUC 3'PFS CUU (mixed)
RNA 1: B1 RNA 1
RNA 2: B1 RNA 2 with G27A, G29C, U52C, C53U, A54U
B32: target 2 MT 5'PFS AGA 3'PFS CAA (mixed)
RNA 1: B1 RNA 1
RNA 2: B1 RNA 2 with G27A, U28G, G29A, U52C, C53A
B33: target 2 MT 5'PFS ACA 3'PFS UAA (mixed)
RNA 1: B1 RNA 1
RNA 2: B1 RNA 2 with G27A, U28C, G29A, C53A
B34: target 1 A18C,U19A (mixed)
RNA 1: CACCCGUGCAAAAAUGCAGGGGUCUAAAACUGAGCGGAUAACCUCUCUAUGG
RNA 2: GGGAAUGGAUCCACAUCUACGAAUUCGUACCAACGAGAGGUUAUCCGCUCACCGAGAUCGGAAGAGCACACGU
B35: target 1 complement block 2-7 (mixed)
RNA 1: B34 RNA 1
RNA 2: B34 RNA 2 with A33U, C34A, C45G, C46G, G47C, C48G, U49A, C50G
B36: target 1 insC 3' of 22,insA 3' of 6 (mixed)
RNA 1: B34 RNA 1
RNA 2: GGGAAUGGAUCCACAUCUACGAAUUCGUACCCAUAGAGAGGUUAUCCAGCUCACCGAGAUCGGAAGAGCACACGU

Changes are numbered by the printed parent chain. Names may count otherwise.

The series concerns the target T1, EsCas13d, nuclease-dead. As to the kind of experiment: crRNA (strand 1, pre-loaded); Mg2+; 40 mM Tris-HCl pH 7.5, 150 mM NaCl, 6 mM MgCl2, 1 mM DTT, 0.1% Tween-20, 0.2 mg/ml BSA; 25 C; 10 min per concentration, then washed. As to conditions: tags: His6-TwinStrep-SUMO cleaved; N-terminal SNAP kept (SNAP-Surface 488); label: 3' end held by stalled T7 RNA polymerase.
With B1, the Kd (in general, a measure of binding affinity in units of concentration) was found to be 17.3 ± 2.7 nM.

B2 returned a dissociation constant Kd of 10 ± 5 nM.

B3 yielded a Kd of 5.1 ± 1.1 nM.

For the molecule B4, the Kd worked out at 6 ± 0.8 nM.

Regarding B5, binding was characterised by a dissociation constant (Kd) of 18.1 ± 3 nM.

As for B6, the Kd came to 8.1 ± 1.4 nM.

As for B7, the Kd was 66 ± 25 nM. This Kd lies about 8.1-fold higher than the previous one.

As for B8, the Kd was 5.7 ± 0.8 nM.

The molecule B9 came in with a Kd of 11.1 ± 2.5 nM.

For B10, the dissociation constant Kd came out at 17 ± 6 nM.

For B11, binding was characterised by a dissociation constant (Kd) of 15 ± 5 nM.

Regarding B12, the Kd is 17 ± 6 nM.

In the case of B13, the dissociation constant Kd came out at 10.6 ± 1 nM.

Turning to B14, binding was characterised by a dissociation constant (Kd) of 17.5 ± 1.4 nM.

Molecule B15 came in with a Kd of 18.2 ± 2.2 nM.

For B16, the Kd was found to be 7.9 ± 3.2 nM.

B17: the Kd was found to be 42 ± 6 nM.

Molecule B18 registered an equilibrium dissociation constant (Kd) of 11.1 ± 2.7 nM. This Kd lies about 3.8-fold lower than the previous one.

Turning to B19, the Kd was 10.4 ± 3.5 nM.

B20 came in with a Kd of 14.2 ± 3.1 nM.

As for B21, the affinity, expressed as Kd, was 7.4 ± 1.6 nM. Against the preceding molecule, the Kd is about 1.9-fold lower.

With B22, binding was characterised by a dissociation constant (Kd) of 17.5 ± 2.3 nM.

B23 returned a dissociation constant (Kd) of 5.6 ± 1.2 nM.

Regarding B24, the Kd was 3.7 ± 0.4 nM.

B25: the dissociation constant (Kd) was about 90 nM.

B26: binding was put at a Kd of 8 ± 1.9 nM.

Regarding B27, the dissociation constant (Kd) turned out to be 7.1 ± 0.9 nM.

In turn, B28 showed a Kd of 15.5 ± 1 nM.

On to B29, for which the Kd is about 18 nM.

Molecule B30 yielded a Kd of 10.5 ± 0.8 nM.

Molecule B31 gave a Kd of about 90 nM.

Molecule B32 had a Kd of 3.5 ± 0.8 nM.

Regarding B33, the Kd came out at 4.3 ± 1.4 nM.

Take B34: the Kd turned out to be 49 ± 4 nM. Compared with the last molecule, the Kd is about 11-fold higher.

In turn, B35 came in with an equilibrium dissociation constant (Kd) of 13.8 ± 0.7 nM.

With B36, binding was characterised by a dissociation constant (Kd) of 12.9 ± 0.9 nM.

(Values after PMC10786891, “Massively parallel profiling of RNA-targeting CRISPR-Cas13d”.)
